Target: glutathione transferase (GST) tag-fused cGAS
Experiment: SEC + other: fluorescence correlation spectroscopy

glutathione transferase (GST) tag-fused cGAS (enzyme)
stoichiometry N: 2

— publication PMC9896928
